19 molecules from patent US20250002588A1 (DIAGONAL THERAPEUTICS, published 2025) can be followed below.

Assay [1] deals with T1, ALK-1/BMPR-2 receptor pair of the PathHunter U2Os dimerization cells (DiscoverX 93-0962C3) (UniProt P37023 22-503; Q13873 27-1038). The experiment in a line: cell-based or functional assay.
In assay [2] the target is T1, ALK-1/BMPR-2 receptor pair of the …. The experiment in a line: cell-based or functional assay. This is another data set of the same source.
The target of assay [3] is human ALK1 protein (Sino Biological, #10066-H08H) (human, UniProt P37023 22-118). The experiment in a line: ELISA, coated human ALK1. In short, it runs like this: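 Antibody binding is read as A450 via TMB after anti-human IgG Fc–HRP secondary (2 μg/ml, 1 h, room temperature). Antibodies, diluted in PBS/0.1% BSA, were incubated 1 h at room temperature on wells coated overnight at 4 °C with 2 μg/ml BMPRII or ALK1.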
On the technique in general: ELISA stands for enzyme-linked immunosorbent assay.

The target of assay [4] is T2, human BMPRII protein (Sino Biological, #10551-H08H) (human, UniProt Q13873 27-150).
T2 sequence (looked up): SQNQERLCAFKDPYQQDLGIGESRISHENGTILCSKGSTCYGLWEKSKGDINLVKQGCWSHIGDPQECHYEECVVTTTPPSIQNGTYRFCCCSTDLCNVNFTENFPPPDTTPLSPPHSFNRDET
The experiment in a line: ELISA, coated human BMPRII. As for the experimental part:
These binders were then tested using an ELISA assay. High binding plates (Corning, 9018) were coated with either 2 μg/ml of human BMPRII protein (Sino Biological, #10551-H08H) or 2 μg/ml of human ALK1 protein (Sino Biological, #10066-H08H) overnight at 4C. The plates were then washed three times with wash buffer (R&D Systems, WA126). […] The plates were then washed three times with wash buffer and DGL antibodies or controls, which were diluted with PBS and 0.1% BSA. The antibodies were incubated for one hour at room temperature and then the plates were washed three times with wash buffer. The plates were then incubated with mouse anti-human IgG Fc secondary—HRP (diluted with PBS/0.1% BSA); 100 ul per well at 2 μg/ml and incubated at room temperature for one hour. The plate was washed three times in wash buffer and then 100 ul TMB (R&D Systems, DY9998B, substrate reagent pack). After the wells turn blue, 50 ul of stop solution (R&D Systems, DY994) was added to each well and the absorbance of the plate was read at 450 nm. results can be found in Table 8.

Assay [5] deals with T1, ALK-1/BMPR-2 receptor pair of the …. Kind of assay: cell-based or functional assay. The source holds these as a separate data set.

Positions count from the first letter of the chain named. Where two headings read alike, the source gives them in different places.

human ALK1 protein (Sino Biological, #10066-H08H), sequence (P37023 22-118 limits assumed): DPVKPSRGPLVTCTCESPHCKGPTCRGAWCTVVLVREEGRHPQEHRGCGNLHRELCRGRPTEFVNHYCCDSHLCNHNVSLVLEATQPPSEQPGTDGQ

B1: DGL945 (bispecific antibody, human IgG1, lambda)
heavy: EVQLLESGGGLVQPGGSLRLSCAASGFTFSDYYMTWIRQAPGKGLEWVSSISGGSTYYADSRKGRFTISRDNSENTLYLQMNSLRAEDTAVYYCARDFGVAGWFGQYGMDVWGQGTLVTVSSPLAPEVQLLESGGGLVQPGGSLRLSCAASGFTFSSYAMSWVRQAPGKGLEWVANINQDGSEKNYVDSMRGRFTISRDNSKNTLYLQMNSLRAEDTAVYYCAREFDYWGQGTLVTVSSASTKGPSVFPLAPSSKSTSGGTAALGCLVKDYFPEPVTVSWNSGALTSGVHTFPAVLQSSGLYSLSSVVTVPSSSLGTQTYICNVNHKPSNTKVDKKVEPKSCDKTHTCPPCPAPEAAGAPSVFLFPPKPKDTLYITREPEVTCVVVDVSHEDPEVKFNWYVDGVEVHNAKTKPREEQYNSTYRVVSVLTVLHQDWLNGKEYKCKVSNKALPAPIEKTISKAKGQPREPQVYTLPPSRDELTKNQVSLTCLVKGFYPSDIAVEWESNGQPENNYKTTPPVLDSDGSFFLYSKLTVDKSRWQQGNVFSCSVMHEALHNHYTQKSLSLSPG
light: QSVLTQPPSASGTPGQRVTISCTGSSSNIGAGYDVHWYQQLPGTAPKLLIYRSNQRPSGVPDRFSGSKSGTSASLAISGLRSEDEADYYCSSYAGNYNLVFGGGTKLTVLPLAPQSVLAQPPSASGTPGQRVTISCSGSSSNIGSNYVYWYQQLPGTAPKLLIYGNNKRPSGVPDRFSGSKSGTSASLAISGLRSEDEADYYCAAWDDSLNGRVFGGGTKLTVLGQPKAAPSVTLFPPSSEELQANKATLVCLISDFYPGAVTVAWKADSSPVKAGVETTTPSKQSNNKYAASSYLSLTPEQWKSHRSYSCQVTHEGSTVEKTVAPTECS
Take B1: the “% Emax BMP9” value in assay [1] turned out to be 78%.

B2: DGL641 (bispecific antibody)
chain 1: EVQLLESGGGLVQPGGSLRLSCAASGFTFSNAWMNWVRQAPGKGLEWVSSISSSSSYIYYADSVKGRFTISRDNSKNTLYLQMNSLRAEDTAVYYCARAVAAGGMFWGLDQWGQGTLVTVTSSGGGGSGGGGSGGGGSQSVLTQPPSASGTPGQRVTISCSGSRSNIGSNSVHWYQQLPGTAPKLLIYGNSNRPSGVPDRFSGSKSGTSASLAISGLRSEDEADYYCQSYDSSLNDHVVFGGGTKLTVLDKTHTCPPCPAPEAAGAPSVFLFPPKPKDTLMISRTPEVTCVVVDVSHEDPEVKFNWYVDGVEVHNAKTKPREEQYNSTYRVVSVLTVLHQDWLNGKEYKCKVSNKALPAPIEKTISKAKGQPREPQVCTLPPSRDELTKNQVSLSCAVKGFYPSDIAVEWESNGQPENNYKTTPPVLDSDGSFFLVSKLTVDKSRWQQGNVFSCSVMHEALHNHYTQKSLSLSPGWSHPQFEK
chain 2: not shown
B2: in assay [2], the “% Emax BMP9” value was 76% and the “Emax (RLU)” value stood at 1.41e+06 RLU. Besides, in assay [3], the “Abs450 1 nM” value was 0.07, the “Abs450 10 nM” value was 0.15 and the “Abs450 100 nM” value was 0.83. Moreover, in assay [4], the “Abs450 1 nM” value is 0.33, the “Abs450 10 nM” value came to 0.43 and the “Abs450 100 nM” value came to 0.9.

B3: DGL645 (bispecific antibody)
chain 1: B2 chain 1 with A102G, G103T, G104S, F106W, W107Y
chain 2: not shown
As to B3, in assay [2], the “% Emax BMP9” value turned out to be 19% and the “Emax (RLU)” value was 353000 RLU. Also, in assay [3], the “Abs450 1 nM” value is 0.07, the “Abs450 10 nM” value is 0.13 and the “Abs450 100 nM” value was 0.59. For the same molecule, in assay [4], the “Abs450 1 nM” value worked out at 0.23, the “Abs450 10 nM” value was found to be 0.21 and the “Abs450 100 nM” value turned out to be 0.16.

B4: DGL644 (bispecific antibody)
chain 1: B2 chain 1 with A99S, V100N, A101G, A102S, M105S, F106T, W107S, G108P, Q111L
chain 2: not shown
For the molecule B4, in assay [2], the “% Emax BMP9” value was determined as 8% and the “Emax (RLU)” value worked out at 153000 RLU. In assay [3], the “Abs450 1 nM” value came out at 0.06, the “Abs450 10 nM” value worked out at 0.1 and the “Abs450 100 nM” value is 0.54. In addition, in assay [4], the “Abs450 1 nM” value was determined as 0.23, the “Abs450 10 nM” value is 0.2 and the “Abs450 100 nM” value is 0.17.

B5: DGL649 (bispecific antibody)
chain 1: B2 chain 1 with N31L, S55T
chain 2: not shown
B5: in assay [2], the “% Emax BMP9” value was found to be 35% and the “Emax (RLU)” value came out at 648000 RLU. Further, in assay [3], the “Abs450 1 nM” value was 0.07, the “Abs450 10 nM” value came to 0.18 and the “Abs450 100 nM” value is 0.81. Further, in assay [4], the “Abs450 1 nM” value is 0.3, the “Abs450 10 nM” value worked out at 0.32 and the “Abs450 100 nM” value is 0.76.

B6: DGL647 (bispecific antibody)
chain 1: B2 chain 1 with M105F
chain 2: not shown
Take B6: in assay [2], the “% Emax BMP9” value worked out at 79% and the “Emax (RLU)” value is 1.46e+06 RLU. Further, in assay [3], the “Abs450 1 nM” value was found to be 0.07, the “Abs450 10 nM” value came out at 0.16 and the “Abs450 100 nM” value was found to be 0.84. Moreover, in assay [4], the “Abs450 1 nM” value is 0.25, the “Abs450 10 nM” value is 0.51 and the “Abs450 100 nM” value was 1.9.

B7: DGL648 (bispecific antibody)
chain 1: B2 chain 1 with M105L
chain 2: not shown
B7: in assay [2], the “% Emax BMP9” value was 78% and the “Emax (RLU)” value was 1.45e+06 RLU. Besides, in assay [3], the “Abs450 1 nM” value was 0.08, the “Abs450 10 nM” value is 0.17 and the “Abs450 100 nM” value was 0.8. In addition, in assay [4], the “Abs450 1 nM” value is 0.24, the “Abs450 10 nM” value stood at 0.33 and the “Abs450 100 nM” value was 0.77.

B8: DGL869 (bispecific antibody)
chain 1: not shown
chain 2: EVQLLESGGGLVQPGGSLRLSCAASGFTFSDYYMTWIRQAPGKGLEWVSSISGGSTYYADSRKGRFTISRDNSENTLYLQMNSLRAEDTAVYYCARDFGVAGWFGQYGMDVWGQGTLVTVSSGGGGSGGGGSGGGGSQSVLTQPPSASGTPGQRVTISCTGSSSNIGAGYDVHWYQQLPGTAPKLLIYRSNQRPSGVPDRFSGSKSGTSASLAISGLRSEDEADYYCSSYAGNYNLVFGGGTKLTVLDKTHTCPPCPAPEAAGAPSVFLFPPKPKDTLMISRTPEVTCVVVDVSHEDPEVKFNWYVDGVEVHNAKTKPREEQYNSTYRVVSVLTVLHQDWLNGKEYKCKVSNKALPAPIEKTISKAKGQPREPQVCTLPPSRDELTKNQVSLSCAVKGFYPSDIAVEWESNGQPENNYKTTPPVLDSDGSFFLVSKLTVDKSRWQQGNVFSCSVMHEALHNHYTQKSLSLSPGWSHPQFEK
Turning to B8, in assay [5], the “% Emax BMP9” value was 56% and the “Emax (RLU)” value turned out to be 1.44e+06 RLU.

B9: DGL871 (bispecific antibody)
chain 1: not shown
chain 2: B8 chain 2
For the molecule B9, in assay [5], the “% Emax BMP9” value is 62% and the “Emax (RLU)” value was determined as 1.59e+06 RLU.

B10: DGL876 (bispecific antibody)
chain 1: not shown
chain 2: B8 chain 2
As for B10, in assay [5], the “% Emax BMP9” value stood at 61% and the “Emax (RLU)” value was 1.57e+06 RLU.

B11: DGL874 (bispecific antibody)
chain 1: not shown
chain 2: B8 chain 2
Regarding B11, in assay [5], the “% Emax BMP9” value turned out to be 61% and the “Emax (RLU)” value worked out at 1.56e+06 RLU.

B12: DGL880 (bispecific antibody)
chain 1: not shown
chain 2: B8 chain 2 with S163A, S195A, N233L
Consider B12, for which, in assay [5], the “% Emax BMP9” value amounted to 66% and the “Emax (RLU)” value came to 1.68e+06 RLU.

B13: DGL875 (bispecific antibody)
chain 1: not shown
chain 2: B8 chain 2
Turning to B13, in assay [5], the “% Emax BMP9” value was found to be 65% and the “Emax (RLU)” value came to 1.66e+06 RLU.

B14: DGL873 (bispecific antibody)
chain 1: not shown
chain 2: B8 chain 2
For B14, in assay [5], the “% Emax BMP9” value was found to be 60% and the “Emax (RLU)” value worked out at 1.55e+06 RLU.

B15: DGL870 (bispecific antibody)
chain 1: not shown
chain 2: B8 chain 2
Turning to B15, in assay [5], the “% Emax BMP9” value worked out at 56% and the “Emax (RLU)” value worked out at 1.42e+06 RLU.

B16: DGL877 (bispecific antibody)
chain 1: not shown
chain 2: B8 chain 2 with S163A
Turning to B16, in assay [5], the “% Emax BMP9” value was found to be 76% and the “Emax (RLU)” value worked out at 1.95e+06 RLU.

B17: DGL872 (bispecific antibody)
chain 1: not shown
chain 2: B8 chain 2
As for B17, in assay [5], the “% Emax BMP9” value amounted to 57% and the “Emax (RLU)” value was found to be 1.46e+06 RLU.

B18: DGL878 (bispecific antibody)
chain 1: not shown
chain 2: B8 chain 2 with S195A
In the case of B18, in assay [5], the “% Emax BMP9” value was found to be 73% and the “Emax (RLU)” value was 1.88e+06 RLU.

B19: DGL879 (bispecific antibody)
chain 1: not shown
chain 2: B8 chain 2 with N233L
With B19, in assay [5], the “% Emax BMP9” value amounted to 71% and the “Emax (RLU)” value came to 1.81e+06 RLU.
